# Measured values taken from the supplement of paper PMC10201428.
# ± gives the standard deviation of the averaged measurements.
# B1: library; a variant is named by its letters at N, in order (parent)
# chain: AATGTTGTTGATGCAACCATAAAGTGATATTTAATAATTATTTATAATCAGCAACTTAACCACAAAACAACCATATATTGATATNTCACAAAACAACCATAANTTGATATTTTTGTGAATCGAGTATTTCAGCAAAACTACTGCAGTAAGAA
# B2: library; a variant is named by its letters at N, in order (parent)
# chain: ACATTTGTTGATACAACCATAAAATGATAATTACACCCATAAATTGATAATTATCACACCCANNNNNNNNNNNNNNCTCTGATCATAGTCAGACCAACATTGCTACGACCCGTATTCGCACCGACAC
# How the values were obtained:
# Settings in all cases: with VchCAST RNA-guided transposition machinery (E. coli BL21(DE3) host, lacZ target)
# [1] = variants of: B1; test: relative integration efficiency (T-LR orientation) vs wild-type transposon end (log2 (normalized fold change)); transposon end mutated: left end; higher = more efficient transposition
# Method in brief: (§1)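 In E. coli BL21(DE3), a T7-driven effector plasmid was paired with a pUC57 mini-transposon donor containing 1549 left-end or 1849 right-end barcoded transposon variants. Cells grew on plates with 0.1 mM IPTG at 37°C for 18 h. Relative integration efficiency was derived from Illumina reads of genomic integration junctions against input plasmids, as a log-transformed output/input barcode fold change normalised to reference barcodes.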
# [2] = variants of: B1; test: relative integration efficiency (T-RL orientation) vs wild-type transposon end (log2 (normalized fold change)); transposon end mutated: left end; higher = more efficient transposition
# Method in brief: as §1
# [3] = variants of: B2; test: relative integration efficiency (T-RL orientation) vs wild-type transposon end (log2 (normalized fold change)); transposon end mutated: right end (5 bp flank + 75 bp right end); higher = more efficient transposition
# Method: (§2)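 Pooled, barcoded VchCAST (Tn6677) mini-transposon donor libraries; each variable transposon-end sequence sits in a fixed pDonor mini-transposon context (10-bp barcode and cargo not included). Left- or right-end libraries were co-transformed with pEffector (TniQ-Cascade, TnsABC, lacZ crRNA, T7, 0.1 mM IPTG) into E. coli BL21(DE3) and grown 18 h at 37 C. T-LR and T-RL junction amplicons were sequenced; output/input barcode fold change was normalised to the mean of four wild-type barcodes and log2-transformed. Two biological replicates; zero-count/undetected variants carry floor values (-10 / -15), censored here. Barcode uncoupling by PCR recombination adds noise.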
# [4] = variants of: B2; test: relative integration efficiency (T-LR orientation) vs wild-type transposon end (log2 (normalized fold change)); transposon end mutated: right end (5 bp flank + 75 bp right end); higher = more efficient transposition
# Method: as §2
Variant,relative integration efficiency (log2) [1],relative integration efficiency (log2) [2],relative integration efficiency (log2) [3],relative integration efficiency (log2) [4]
CG T114G G115T T116G G117T A118C A119C T120G C121A G122T A123C G124T T125G,0.318 ± 0.049,0.295 ± 0.074,–,–
CG T114G T120A,0.16 ± 0.11,-0.2 ± 0.041,–,–
CG T116A,0.317 ± 0.21,0.0633 ± 0.024,–,–
CG T116A G117C,0.431 ± 0.71,0.161 ± 0.0064,–,–
CG T116A G117C A118T A119T,0.00543 ± 0.19,0.0211 ± 0.042,–,–
CG T116C,0.235 ± 0.36,-0.0857 ± 0.085,–,–
CG T116G,0.159 ± 0.61,0.0899 ± 0.05,–,–
CG T116G G117T,-0.146 ± 0.0071,-0.273 ± 0.045,–,–
CG T116G G117T A118C A119C,-0.21 ± 0.42,0.0794 ± 0.11,–,–
CG T116G G117T A118C A119C T120G C121A G122T A123C G124T T125G,-0.144 ± 0.39,-0.0959 ± 0.032,–,–
CG T120A,0.11 ± 0.41,-0.141 ± 0.026,–,–
CG T120C,-0.00648 ± 0.1,-0.131 ± 0.053,–,–
CG T120G,-0.103 ± 0.1,-0.231 ± 0.1,–,–
CG T120G C121A G122T A123C G124T T125G,0.433 ± 0.18,0.166 ± 0.011,–,–
CG T125G,0.265 ± 0.28,-0.0179 ± 0.099,–,–
CT,0.219 ± 0.67,-0.0852 ± 0.034,–,–
CT A22C A23C G24T T25G T76G A77C T78G T79G A102C T104G T105G,< -10,-8.29 ± 1.2,–,–
CT A22C A23C G24T T76G A77C T78G A102C T104G,-4.26 ± 1.6,-3.88 ± 1.4,–,–
CT A22C A23C T76G A77C A102C,-3.01 ± 0.15,-3.81 ± 0.97,–,–
CT A23C A77C,-0.217 ± 1.2,-0.234 ± 0.065,–,–
CT A23C G24T A77C T78G T104G,-0.239 ± 0.088,-0.527 ± 0.28,–,–
CT A101C A102C T104G,-2.08 ± 1.2,-1.96 ± 0.64,–,–
CT A102C,-1.29 ± 0.9,-0.973 ± 0.41,–,–

Variant,relative integration efficiency (log2) [1],relative integration efficiency (log2) [2],relative integration efficiency (log2) [3],relative integration efficiency (log2) [4]
CT A102C T104G T105G,-1.62 ± 0.69,-1.98 ± 0.87,–,–
CT T100G A101C A102C,-1.43 ± 0.25,-2.43 ± 0.88,–,–
CT T104G,-0.14 ± 0.17,-0.45 ± 0.14,–,–
CT T104G T105G G106T,-1.03 ± 0.46,-1.06 ± 0.9,–,–
CG A19C A73C A99C,–,-6.27 ± 1.8,–,–
CG A19C T20G A21C A22C,–,-3.48 ± 1.4,–,–
CG A22C T76G A102C,–,-3.7 ± 1.5,–,–
CG A44G T45C A47T T48A C49A G51A C52A A53T A54T T56A A58C,–,-6.6 ± 1.8,–,–
CG C49G A50T C52A A53T C55A T56C T57A A59T C61A A62C C63A A64G,–,-3.37 ± 1.4,–,–
CG C55A T56G T57G A58C,–,-2.14 ± 0.62,–,–
CG G4C T5A T6A G7C,–,-7.62 ± 0.39,–,–
CG G7C T8A,–,-6.52 ± 0.12,–,–
CG G7T T8G T9G G10T,–,-7.84 ± 0.54,–,–
CG G10C A11T T12A G13C,–,-0.736 ± 0.86,–,–
CG T3A G4C T5A T6A,–,-6.84 ± 0.4,–,–
CG T5A T6A G7C T8A,–,-7.12 ± 1.1,–,–
CG T6A G7C,–,-6.27 ± 0.56,–,–
CG T6A G7C T8A T9A,–,-6.58 ± 0.36,–,–
CG T6G,–,-7.013 ± 0.063,–,–
CG T6G G7T,–,-9.04 ± 0.91,–,–
CG T8G T9G,–,-6.84 ± 0.88,–,–
CG T8G T9G G10T A11C,–,-7.43 ± 0.35,–,–
CG T20G T74G T100G,–,-6.64 ± 1.3,–,–

Variant,relative integration efficiency (log2) [1],relative integration efficiency (log2) [2],relative integration efficiency (log2) [3],relative integration efficiency (log2) [4]
CG T38C A40G T42A A44T A47T T48A C49T G51C C52A A53G A54T C55T T56G,–,-5.99 ± 0.93,–,–
CG T41A A44G A46G T48G A50G C52A A53T C55A T56C T57A A59T C60T,–,-4.27 ± 0.75,–,–
CG T42A A44T C49A G51T C52T C55T A59T C60A C61T C63T A64T A65T,–,-2.87 ± 0.52,–,–
CG T45C A46T A47T C49T A50G C52T A53T T56A A59T C60T,–,-6.51 ± 2,–,–
CG T48A C49T A50T C52T A53G C55G T56C T57G A58G C60T C61A A66T A67T,–,-4.31 ± 0.86,–,–
CG T82A,–,-0.103 ± 0.77,–,–
CT A21C A22C A23C G24T A75C T76G A77C T78G A101C A102C T104G,–,-7.99 ± 1.6,–,–
TAAAAACTTATTGC,–,–,-0.368 ± 0.07,2.34 ± 0.09
TAAAAAGATATTGC,–,–,-0.0646 ± 0.032,1.04 ± 0.075
TAAAATGATAATTA C59A,–,–,0.000716 ± 0.075,-0.0217 ± 0.15
TAAAATGATATTGC,–,–,0.0615 ± 0.025,0.274 ± 0.058
TAAACTGATATTGC,–,–,-0.0927 ± 0.037,0.318 ± 0.14
TAAAGGGATATTGC,–,–,-0.254 ± 0.0064,1.63 ± 0.069
TAAAGGTCTATTGC,–,–,-0.635 ± 0.042,2.17 ± 0.33
TAAAGTGATATTGC,–,–,0.000666 ± 0.021,0.119 ± 0.27
TAAAGTGATATTTA C59A,–,–,-0.094 ± 0.095,-0.17 ± 0.3
TAAATACATATTGC,–,–,-0.637 ± 0.26,2.3 ± 0.041
TAAATACTAATTGC,–,–,-0.376 ± 0.27,2.61 ± 0.13
TAAATAGATATTGC,–,–,-0.222 ± 0.0045,1.53 ± 0.13
TAAATCGATATTGC,–,–,-0.159 ± 0.022,0.237 ± 0.063
TAAATGGATATTGC,–,–,-0.161 ± 0.039,1.54 ± 0.17
TAAATGTATATTGC,–,–,-0.000422 ± 0.028,2.416 ± 0.0088
TAAATGTCGATTGC,–,–,-0.671 ± 0.07,2.165 ± 0.0045
